Test results reported in patent publication US20190077860A1 (EISAI R AND D MANAGEMENT, published 2019).

Key:
[1] = target: mouse EphA4 extracellular region-SEAP-His protein (mouse); experiment: competition ELISA, mouse ligands
Description: Antibody A obtained in Example 1 was evaluated for its inhibitory activity against the binding between mouse EphA4 and its mouse ligand according to the following steps. Each well of a 96-well plate (Nunc) was coated with an anti-alkaline phosphatase antibody (Thermo Fisher Scientific). After incubation overnight at 4° C., each well was blocked with 1% BlockAce (DS Pharma Biomedical) at room temperature for 1 hour. After washing with 0.05% Tween 20/PBS (Thermo Fisher Scientific) three times, the mouse EphA4 extracellular region-SEAP-His protein obtained by the method of Example 1 was added (final concentration: 10 nM) to each well and incubated at room temperature for 1 hour. After washing three times, ligands and serially diluted antibody A (0, 0.001, 0.003, 0.01, 0.03, 0.1, 0.3, 1,3, 10, 30, 100, 300, and 1000 nM) or a known EphA4 inhibitor KYL peptide ([…], 0, 0.003, 0.01, 0.03, 0.1, 0.3, 1, 3, 10, 30, and 100 μM, its synthesis was outsourced to Hokkaido System Science) or compound 1 (0, 0.03, 0.1, 0.3, 1,3, 10, 30, 100, 300, and 1000 μM, Formula 1, Matrix Scientific) were added to each well. The ligands used were mouse Ephrin A1-Fc chimera (R&D Systems, final concentration: 20 nM) and mouse Ephrin B2-Fc chimera (R&D Systems, final concentration: 0.6 nM). […] The absorbance at 450 nm was read using a microplate reader (Molecular Devices).

[2] = target: T1, human EphA4 extracellular region-Fc-His protein (human, UniProt P54764 20-547); experiment: ELISA, EphA4 extracellular region-Fc-His (1 nM) captured on the plate, antibody A titrated, HRP anti-mouse IgG detection, OD 450 nm
T1 construct: used as culture supernatant
Description: (§1) Each well of a 96-well plate (Nunc) was coated with a […] (Jackson ImmunoResearch Laboratories). After incubation overnight at 4° C., each well was blocked with 1% BlockAce (Sumitomo Dainippon Pharma) at room temperature for 1 hour. After washing with 0.05% Tween 20/PBS (Nacalai Tesque) three times, the mouse, rat, monkey, or human EphA4 extracellular region-Fc-His protein was disseminated (final concentration: 1 nM) to each well and incubated at room temperature for 1 hour. After washing three times, a human IgG solution (100 μg/mL, Mitsubishi Pharma) and antibody A (0, 0.00128, 0.0064, 0.032, 0.16, 0.8, 4, and 20 μg/mL) were added to each well and incubated at room temperature for 1 hour. A horseradish peroxidase-labeled donkey anti-mouse IgG antibody (Jackson ImmunoResearch Laboratories) was added thereto and incubated at room temperature for 1 hour. After washing three times, a TMBZ (3,3′,5,5′-tetramethylbenzidine, Sigma-Aldrich) solution was added to each well. After confirmation of moderate color development, an equal amount of a reaction stopping solution (1N H₂SO₄, Wako Pure Chemical Industries) was added to each well. The absorbance at 450 nm was read using a microplate reader (PerkinElmer).

[3] = target: T2, mouse EphA4 extracellular region-Fc-His protein (mouse; human, UniProt Q03137 20-547); experiment: as above
T2 construct: used as culture supernatant
Description: as §1

[4] = target: T3, rat EphA4 extracellular region-Fc-His protein (rat; human, UniProt D3ZZK3 20-547); experiment: as above
T3 construct: range 20-547; used as culture supernatant
Description: as §1

[5] = target: T4, monkey EphA4 extracellular region-Fc-His protein (monkey; human); experiment: as above
T4 construct: used as culture supernatant
Description: as §1

[6] = target: T5, human EphA4 extracellular region-SEAP-His protein (human, UniProt P54764 20-547); experiment: SPR (Biacore T200), human EphA4 extracellular region-SEAP-His captured on an anti-His antibody CM5 chip, antibody as analyte at 0.6-50 nM, 1:1 fit
T5 construct: also called hEphA4-SEAP-His
Description: Next, the binding affinity of antibody A-Fab and antibody A-F(ab′)₂ for mouse and human EphA4 was determined by surface plasmon resonance (SPR) using Biacore T200 (GE Healthcare). Antibody A obtained in Example 1 was used as a control for the comparison of each fragment. First, an anti-His tag antibody was immobilized on sensor chip CM5. The immobilization of the anti-His tag antibody on sensor chip CM5 was performed by the amine coupling method using N-hydroxysuccinimide (NHS) and N-ethyl-N′-(3-dimethylaminopropyl)carbodiimide hydrochloride (EDC). Ethanolamine was used in blocking (the sensor chip and the reagents for immobilization were all manufactured by GE Healthcare). The antibody was diluted with a buffer solution for immobilization (10 mM sodium acetate, pH 4.5) into 3 μg/mL and immobilized on the sensor chip according to the protocol attached to Biacore T200.
Mouse or human EphA4 extracellular region-SEAP-His protein was diluted with a running buffer solution HBS-EP (GE Healthcare, BR-1001-88), injected onto a flow cell for 120 seconds, and captured (amount of the protein captured: approximately 10 to 20 RU). Subsequently, antibody A (50, 16.7, 5.6, 1.9, 0.6, and 0 nM), antibody A-Fab (500, 166.7, 55.6, 18.5, 6.2, and 0 nM), or antibody A-F(ab′)₂ (50, 16.7, 5.6, 1.9, 0.6, and 0 nM) serially diluted using HBS-EP was added to the sensor chip for 120 seconds. Binding reaction curves were sequentially observed at the time of the addition (association phase, for 120 sec) and after the completion of the addition (dissociation phase, for 900 sec). After the completion of each observation, the sensor chip was regenerated by the addition of 3 M MgCl₂ (Wako Pure Chemical Industries) (for 30 sec). The obtained binding reaction curves were subjected to fitting analysis with 1:1 binding models using software BIA evaluation attached to the system to calculate the binding affinity (KD=kd/ka) for mouse and human EphA4.

T5 sequence (P54764 20-547): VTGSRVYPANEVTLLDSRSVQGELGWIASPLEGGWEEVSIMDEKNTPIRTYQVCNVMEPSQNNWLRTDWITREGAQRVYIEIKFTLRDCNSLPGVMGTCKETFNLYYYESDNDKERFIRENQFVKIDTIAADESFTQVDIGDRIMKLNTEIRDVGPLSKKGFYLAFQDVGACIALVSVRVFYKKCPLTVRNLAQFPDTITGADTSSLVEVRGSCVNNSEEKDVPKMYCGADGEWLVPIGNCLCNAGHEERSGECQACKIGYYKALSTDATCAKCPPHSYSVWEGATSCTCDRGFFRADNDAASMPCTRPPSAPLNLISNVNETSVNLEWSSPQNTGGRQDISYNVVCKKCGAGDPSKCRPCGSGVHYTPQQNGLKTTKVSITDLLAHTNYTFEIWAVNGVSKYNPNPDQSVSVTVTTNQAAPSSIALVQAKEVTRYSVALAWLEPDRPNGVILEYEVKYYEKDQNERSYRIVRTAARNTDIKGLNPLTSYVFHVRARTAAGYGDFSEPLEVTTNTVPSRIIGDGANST
T4 sequence (chain, as listed by the source): as the sequence (P54764 20-547) above, with N406S counted along it
T1 sequence (P54764 20-547): as the sequence (P54764 20-547) above
mouse EphA4 extracellular region-SEAP-His protein (mouse), sequence (chain, as listed by the source limits assumed): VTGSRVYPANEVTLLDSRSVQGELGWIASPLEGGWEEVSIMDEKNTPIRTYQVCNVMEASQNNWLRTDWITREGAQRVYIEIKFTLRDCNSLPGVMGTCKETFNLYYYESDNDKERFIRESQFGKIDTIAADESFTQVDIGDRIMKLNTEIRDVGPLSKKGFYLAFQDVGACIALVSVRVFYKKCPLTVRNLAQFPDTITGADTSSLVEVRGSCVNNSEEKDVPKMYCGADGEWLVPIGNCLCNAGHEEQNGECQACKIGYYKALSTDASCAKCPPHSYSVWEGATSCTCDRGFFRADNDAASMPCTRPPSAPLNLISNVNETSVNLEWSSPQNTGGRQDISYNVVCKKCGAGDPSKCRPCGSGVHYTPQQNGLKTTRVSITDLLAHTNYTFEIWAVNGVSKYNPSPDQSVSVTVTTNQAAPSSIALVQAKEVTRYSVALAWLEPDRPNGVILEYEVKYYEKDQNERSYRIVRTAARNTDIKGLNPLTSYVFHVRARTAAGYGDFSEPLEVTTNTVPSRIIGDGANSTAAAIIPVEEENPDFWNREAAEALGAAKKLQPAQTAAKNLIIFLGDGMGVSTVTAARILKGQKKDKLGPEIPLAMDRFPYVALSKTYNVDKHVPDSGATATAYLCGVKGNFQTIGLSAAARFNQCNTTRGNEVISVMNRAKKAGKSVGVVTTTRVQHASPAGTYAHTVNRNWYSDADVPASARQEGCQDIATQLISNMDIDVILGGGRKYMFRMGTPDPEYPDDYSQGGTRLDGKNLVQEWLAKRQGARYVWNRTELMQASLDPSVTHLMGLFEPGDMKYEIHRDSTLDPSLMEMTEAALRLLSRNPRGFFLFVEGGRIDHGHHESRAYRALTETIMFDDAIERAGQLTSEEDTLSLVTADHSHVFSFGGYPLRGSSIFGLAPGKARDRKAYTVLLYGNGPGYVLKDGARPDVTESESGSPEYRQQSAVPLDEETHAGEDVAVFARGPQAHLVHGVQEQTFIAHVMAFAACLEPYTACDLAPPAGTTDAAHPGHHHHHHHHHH
T2 sequence (Q03137 20-547): as the sequence (P54764 20-547) above, with P59A, N121S, V124G, R250Q, S251N, T270S, K378R, N406S counted along it

B1: antibody A (antibody, mouse IgG1, kappa, V domains shown)
VH: QIQLVQSGPELKKPGETVKISCKASGYTFTDYSMHWVKQAPGKGLKWMGWINTETGEPTYADDFKGRFAFSLETSASTAYLQINNLKNEDTATYFCARIPLYYYGSRYWYFDVWGAGTTVTVSS
VL: DIQMTQSPASLSVSVGETVTITCRASENIYRNLAWYQQKQGKSPQLLVYAATNLADGVPSRFSGSGSGTQYSLKINSLQSEDFGSYYCQHFWGTPWTFGGGTKLEIKR
notes: mouse IgG1 heavy chain, kappa light chain; purified from hybridoma supernatant; also called anti-EphA4 monoclonal antibody; antibody A-IgG
B1 was tested, and the “fold activity against KYL peptide” value [1] was ≥ 1000 fold, the “EC50 (read off the curve)” value [2] was ~0.1 nM and the “EC50 (read off the curve)” value [3] was ~0.1 nM. The “EC50 (read off the curve)” value [4] was ~0.1 nM, the “EC50 (read off the curve)” value [5] was ~0.1 nM and the Kd [6] was 0.144 nM. For the same binder, the koff [6] was 0.000389 s⁻¹ and the kon [6] was 2.7e+06 M⁻¹ s⁻¹.
